In article PMC11577023:

Tests used:
Test in all cases: […] (pH 7.4), 0.5 mL/min; […]
[1] = molecular target: rTET-NA derived from B/Phuket/3073/2013 (B/Yamagata/16/88-like lineage) (not stated | influenza B virus B/Phuket/3073/2013 (B/Yamagata/16/88-like lineage))
[2] = molecular target: rTET-NA derived from A/Michigan/45/2015 N1 (not stated | influenza A virus A/Michigan/45/2015 (H1N1))
[3] = molecular target: rTET-NA derived from B/Colorado/06/2017 (B/Victoria/2/87-like lineage) (not stated | influenza B virus B/Colorado/06/2017 (B/Victoria/2/87-like lineage))
[4] = molecular target: rTET-NA derived from A/Singapore/INFIMH-16-0019/2016 N2 (not stated | influenza A virus A/Singapore/INFIMH-16-0019/2016 (H3N2))

For “rTET-NA derived from B/Phuket/3073/2013 (B/Yamagata/16/88-like lineage) (enzyme)”, the stoichiometry N [1] was 4.

With “rTET-NA derived from A/Michigan/45/2015 N1 (enzyme)” the stoichiometry N [2] was 4.

For “rTET-NA derived from B/Colorado/06/2017 (B/Victoria/2/87-like lineage) (enzyme)”, the stoichiometry N [3] was 4.

“rTET-NA derived from A/Singapore/INFIMH-16-0019/2016 N2 (enzyme)” gave a stoichiometry N [4] of 4.
